# According to patent US20230322924A1 (Janssen / Centocor, published 2023):
# B1: D43G/V48L/L49M/L50I/S62N/Q85E/H89Y LC (with WT HC) (antibody, V domains shown)
# VH: QVQLQQSGPRLVRPSQTLSLTCAISGDSVFNNNAAWSWIRQSPSRGLEWLGRTYYRSKWLYDYAVSVKSRITVNPDTSRNQFTLQLNSVTPEDTALYYCARGYSSSFDYWGQGTLVTVSS
# VL: QSALTQPASVSGSPGQSITISCTGTSSNIGTYKFVSWYQQHPGKAPKLMIYEVSKRPSGVSNRFSGSKSGNTASLTISGLQAEDEADYYCCSYAGSGTLLFGGGTKLTVL
# notes: also called BLW-2E6 variant CD3H219/CD3L136
# B2: CD3B376 (antibody, human IgG4 S228P, lambda, F234A L235A, V domains shown)
# VH: B1 VH
# VL: QSALTQPASVSGSPGQSITISCTGTSSNIGTYKFVSWYQQHPDKAPKVLLYEVSKRPSGVSSRFSGSKSGNTASLTISGLQAEDQADYHCVSYAGSGTLLFGGGTKLTVLG
# notes: Bivalent anti-CD3 parental mAb, IgG4 PAA with F405L and R409K; also called CD3H219/CD3L150
# B3: C33B836 (antibody, IgG4, V domains shown)
# VH: QVQLVQSGSELRKPGASVKVSCKASGYTFTNYAMNWVRQAPGQGLEWMGWINTNTGNPTYAQGFTGRFVFSLDTSVSSAYLQISSLKAEDTAMYYCATDRDRGTDYWGQGTLVTVSS
# VL: QSALTQPASVSGSPGQSITISCTGTSSDVGDYNYVSWYQQHPGKVPKLMIYDVSNRPSGVSNRFSGSMSGNTASLTISGLQAEDEADYYCSSYSSSSALEVFGGGTKLTVL
# notes: OMNIRat-derived; same V regions as C33B48; also called C33H80/C33L73; C33F53
# B4: TMEB762 (antibody, human IgG4 S228P, kappa, F234A L235A, V domains shown)
# VH: EVQLLESGGGLVQPGGSLRLSCAASGFTFSSYSMSWVRQAPGKGLEWVSVISGSGGFTDYADSVKGRFTISRDNSKNTLYLQMNSLRAEDTAVYYCARMPLNSPHDYWGQGTLVTVSS
# VL: DIQMTQSPSSLSASVGDRVTITCRASQGIRNDLGWYQQKPGKAPKLLIYAASSLQSGVPSRFSGSGSGTDFTLTISSLQPEDFATYYCLQDYNYPLTFGGGTKVEIKR
# notes: IgG4 PAA anti-TMEFF2; re-engineered variant of TMEB675; also called TMEH459/DL3L129
# B5: TMCB150 (bispecific antibody, human IgG4 S228P, kappa, lambda, F234A L235A)
# heavy 1: not shown
# light 1: not shown
# heavy 2: QVQLQQSGPRLVRPSQTLSLTCAISGDSVFNNNAAWSWIRQSPSRGLEWLGRTYYRSKWLYDYAVSVKSRITVNPDTSRNQFTLQLNSVTPEDTALYYCARGYSSSFDYWGQGTLVTVSSASTKGPSVFPLAPCSRSTSESTAALGCLVKDYFPEPVTVSWNSGALTSGVHTFPAVLQSSGLYSLSSVVTVPSSSLGTKTYTCNVDHKPSNTKVDKRVESKYGPPCPPCPAPEAAGGPSVFLFPPKPKDTLMISRTPEVTCVVVDVSQEDPEVQFNWYVDGVEVHNAKTKPREEQFNSTYRVVSVLTVLHQDWLNGKEYKCKVSNKGLPSSIEKTISKAKGQPREPQVYTLPPSQEEMTKNQVSLTCLVKGFYPSDIAVEWESNGQPENNYKTTPPVLDSDGSFLLYSKLTVDKSRWQEGNVFSCSVMHEALHNHYTQKSLSLSLGK
# light 2: QSALTQPASVSGSPGQSITISCTGTSSNIGTYKFVSWYQQHPDKAPKVLLYEVSKRPSGVSSRFSGSKSGNTASLTISGLQAEDQADYHCVSYAGSGTLLFGGGTKLTVLGQPKAAPSVTLFPPSSEELQANKATLVCLISDFYPGAVTVAWKADSSPVKAGVETTTPSKQSNNKYAASSYLSLTPEQWKSHRSYSCQVTHEGSTVEKTVAPTECS
# notes: IgG4 PAA bispecific by Fab-arm exchange; also called TMEB762 x CD3B376
# Legend:
# [1] = biological target: T1, human CD3 on human T cells (human, UniProt P07766 23-207); test: flow cytometry, primary human T cells, AF647 anti-human IgG F(ab')2 secondary
# T1 construct: Native TCR-CD3 complex on cells; also called primary human T cells; human pan T cells
# T1 sequence (P07766 23-207 limits assumed): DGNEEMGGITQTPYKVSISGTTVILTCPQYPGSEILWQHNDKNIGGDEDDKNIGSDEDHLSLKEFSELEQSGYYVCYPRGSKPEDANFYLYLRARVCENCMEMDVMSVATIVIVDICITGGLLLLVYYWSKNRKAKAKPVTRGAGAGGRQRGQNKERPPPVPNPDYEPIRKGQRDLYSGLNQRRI
# Procedure: The 80 mutant clones were assayed for binding to primary human T cells (FIGS. 7 and 8). […] The plates were centrifuged at 300×g for 5 minutes to pellet the cells and the supernatant removed. The plate was gently vortexed briefly to resuspend the cells.
# N-terminal CD3ε peptide = biological target: T2, N-terminal CD3ε peptide; test: Biacore 8K SPR, antibody captured on anti-human Ig, peptide as analyte
# T2 construct: domain: N-terminal CD3ε peptide
# T2 sequence (P07766 22-48): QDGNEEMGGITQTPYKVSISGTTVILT
# Procedure: Kinetic rate constants were measured by SPR performed using Biacore 8K (GE Healthcare) and anti-human Fc biosensor surfaces. Anti-human immunoglobulin antibodies were covalently coupled to the surface of a CM4 sensor chip (GE Healthcare). Antibodies of interest were captured on the anti-human immunoglobulin sensor chip, followed by injection of N-terminal CD3ε peptide at various concentrations in HEPES Buffered Saline containing 0.05% surfactant P20 (Tween™ 20) and 100 ug/mL BSA. The surface was regenerated with 2 pulses injections of 30 μL of 0.8% phosphoric acid at 100 μL/min. Data reported is the difference in SPR signal between the flow cell containing the captured antibody and a reference cell without captured antibody. Additional instrumental contributions to the signal were removed by subtraction of the data from the blank injection from the reference-subtracted signal. The data were analyzed by fitting association and dissociation phases at all concentrations (global fit) with a 1:1 binding model using the Biaevaluation software (Biacore, Inc.). Data is reported as average+95% CI (Confidence Interval) which is calculated by t value for 95% CI*stdev/square root of the number of replicates.
# B-Defensin-3 = biological target: T3, B-Defensin-3; test: Biacore 8K non-specific binding test, antibody over immobilised protein
# T3 construct: also called β-defensin
# T3 sequence (P81534 23-67): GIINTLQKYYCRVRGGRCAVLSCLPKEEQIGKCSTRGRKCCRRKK
# Procedure: (§1) Non-specific binding of the lead molecule to unrelated surfaces is determined by biosensor technology (Biacore 8K). Antibody is passed over SPR surfaces coated with unrelated proteins. […] Irrelevant surfaces include negatively charged protein (Soy Trypsin Inhibitor), positively charged protein (Lysozyme and β-defensin), hydrophobic (Rh-integrin a4b7), human IgG, sticky protein (Rh-CD19). Proper controls are used in this experiment. Lead is flown over two surfaces, one is a blank and the other has a molecule directly immobilized. The response unit (RU) level is determined by subtracting the blank RU from the test surface RU. […] A response unit ≥100 predicts high risks for non-specific binding to charged/hydrophobic/IgG surfaces which would create challenges during manufacturing and translate to poor PK properties.
# Human IgG = test: as above
# Procedure: as §1
# Soy Trypsin Inhibitor = biological target: T4, Soy Trypsin Inhibitor (soy, UniProt P01070 25-205); test: as above
# T4 construct: also called STI
# T4 sequence (looked up): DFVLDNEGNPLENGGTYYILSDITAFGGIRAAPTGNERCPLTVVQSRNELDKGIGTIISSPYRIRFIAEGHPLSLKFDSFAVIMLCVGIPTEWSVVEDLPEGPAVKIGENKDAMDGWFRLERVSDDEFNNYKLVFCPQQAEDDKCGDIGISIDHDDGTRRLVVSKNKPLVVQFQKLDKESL
# Procedure: as §1
# Lysozyme = test: as above
# Lysozyme, sequence (P00698 19-147): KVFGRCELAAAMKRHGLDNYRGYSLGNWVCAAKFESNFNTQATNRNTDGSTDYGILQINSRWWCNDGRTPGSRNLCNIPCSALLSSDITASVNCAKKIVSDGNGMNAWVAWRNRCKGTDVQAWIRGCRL
# Procedure: as §1
# rh-CD19 = biological target: T5, rh-CD19 (UniProt P15391 20-291, limits assumed); test: as above
# T5 sequence (looked up): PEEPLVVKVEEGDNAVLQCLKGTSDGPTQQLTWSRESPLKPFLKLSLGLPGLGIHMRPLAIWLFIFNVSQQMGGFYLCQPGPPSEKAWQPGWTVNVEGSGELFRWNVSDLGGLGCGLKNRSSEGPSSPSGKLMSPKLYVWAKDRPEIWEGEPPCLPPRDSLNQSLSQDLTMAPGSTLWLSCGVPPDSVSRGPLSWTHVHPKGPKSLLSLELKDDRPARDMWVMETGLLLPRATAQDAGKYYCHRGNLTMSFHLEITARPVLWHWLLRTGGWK
# Procedure: as §1
# rh-Integrin a4b7 = rh-Integrin a4b7 (UniProt P13612 34-977; P26010 20-723, limits assumed); test: as above
# Procedure: as §1
# Human CD33 ECD-HSA = biological target: T6, Human CD33 ECD-HSA (human); test: SPRi off-rate screen (IBIS MX96)
# T6 construct: CD33 ECD fused at the C-terminus to monomeric HSA (C58S) and a six-histidine tag; also called C33W2; huCD33 ECD-HSA
# Human CD33-V-HSA = biological target: T7, Human CD33-V-HSA (human); test: SPRi off-rate screen (IBIS MX96)
# T7 construct: V domain of human CD33 fused to HSA; also called C33W3; huCD33-V-HSA
# [2] = biological target: T8, human TMEFF2 extracellular domain (ECD) (human, UniProt Q9UIK5 41-320); test: KinExA solution equilibrium affinity
# T8 construct: also called TMEFF2-ECD
# T8 sequence: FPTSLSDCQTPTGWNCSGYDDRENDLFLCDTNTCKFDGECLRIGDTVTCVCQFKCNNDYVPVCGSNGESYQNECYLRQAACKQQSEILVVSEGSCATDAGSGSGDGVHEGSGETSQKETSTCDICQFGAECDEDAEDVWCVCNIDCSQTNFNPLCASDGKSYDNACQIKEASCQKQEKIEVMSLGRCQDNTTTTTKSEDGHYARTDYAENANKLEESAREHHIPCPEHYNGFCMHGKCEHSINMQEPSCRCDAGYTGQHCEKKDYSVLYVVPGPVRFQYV
# Procedure: Serial dilutions of human TMEFF2 extracellular domain (ECD) were prepared with a constant concentration of anti-TMEFF2 mAb in 10 mM HEPES, 150 mM NaCL, 0.05% surfactant P20, pH 7.4, 0.1% BSA, and 0.02% NaN3. The reaction mixtures were incubated at RT until the binding interactions reached equilibrium. The duration of the incubation was determined using KinExA software simulation. Beads were prepared by direct covalent immobilization of TMEFF2-ECD by amine-coupling on pre-activated beads composed of bis-acrylamide/azlactone copolymer (Pierce Biotechnology, Inc.). After incubation the samples were run on the KinExA instrument to assess free antibody in the mixture by passing the mixture though the TMEFF2-modified beads, and detecting the captured antibody using a fluorescently labeled secondary antibody. The data was fit with a 1:1 binding model using the KinExA Pro software.
# [3] = biological target: T9, TMEW1 (TMEFF2-FL-ECD-His-Avitag) (human, UniProt Q9UIK5 41-320); test: Biacore 8K SPR, mAb captured on anti-human Fc, single cycle kinetics
# T9 construct: Human TMEFF2 ECD with C-terminal G3S, 6xHis tag and Avi-tag, all in the entry; also called TMEFF2 ECD
# T9 sequence: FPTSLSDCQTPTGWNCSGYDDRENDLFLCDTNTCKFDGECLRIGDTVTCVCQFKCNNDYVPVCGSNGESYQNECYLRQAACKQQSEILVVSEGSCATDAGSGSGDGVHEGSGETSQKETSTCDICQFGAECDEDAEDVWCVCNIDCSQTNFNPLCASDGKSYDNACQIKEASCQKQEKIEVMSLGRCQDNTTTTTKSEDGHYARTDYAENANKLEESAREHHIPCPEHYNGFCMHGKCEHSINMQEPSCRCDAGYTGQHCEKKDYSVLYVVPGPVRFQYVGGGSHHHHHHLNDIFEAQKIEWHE
# Procedure: The binding of anti-TMEFF2 mAbs to human TMEFF2 ECD was measured by Biacore 8K SPR. The format of the assay was to capture the mAbs using a high density anti-human Fc surface, then inject human TMEFF2 concentration titration using a single cycle kinetics method. […] The mAbs were captured on the anti-human Fc IgG surface at 0.5 μg/ml (˜200-300 RU) on flow cell 2. The running buffer was then changed to HBSP+100 ug/ml BSA. TMEFF2 ECD at 30 nM concentration in 3-fold dilution series was injected from low to high concentration using single cycle kinetics method. The off-rate was monitored 30 minutes after the last or highest concentration injection and then the surface was regenerated using 0.8% phosphoric acid (Bio-Rad). A buffer blank run, capturing the same mAbs and using the same conditions of sample run was also completed. The raw data were processed by subtracting two sets of reference data from the response data: 1) reference flow cell 1 subtracted from sample flow cell 2 and 2) buffer blank run from experimental run. The processed data at all concentrations for each mAb were globally fit to a 1:1 simple Langmuir binding model to extract estimates of the kinetic (kon, koff) and affinity (KD) constants.
Binder,binding result [1],Kd (N-terminal CD3ε peptide) [nM],koff (N-terminal CD3ε peptide) [s⁻¹],kon (N-terminal CD3ε peptide) [M⁻¹ s⁻¹],response units (RU) (B-Defensin-3),response units (RU) (Human IgG),response units (RU) (Soy Trypsin Inhibitor),response units (RU) (Lysozyme),response units (RU) (rh-CD19),response units (RU) (rh-Integrin a4b7),koff (Human CD33 ECD-HSA) [s⁻¹],koff (Human CD33-V-HSA) [s⁻¹],Kd [2] [nM],Kd [3] [nM],koff [3] [s⁻¹],kon [3] [M⁻¹ s⁻¹]
B1,no binding (tested: 50 nM),,,,,,,,,,,,,,,
B2,,26.9,0.00117,43300,3.1,0.4,19.5,0.2,0,0,,,,,,
B3,,,,,,,,,,,5.52e-05,3.71e-05,,,,
B4,,,,,4.1,8.4,,4.6,3.3,0,,,0.0461,0.32,0.000174,541000
B5,,28.7,0.00103,35700,6.4,7.5,,4.2,3.4,0,,,0.0636,,,
